± gives the uncertainty stated by the source.
Assay: amyloid nucleation score (Sup35N fusion, yeast selection) (log enrichment); library NNK2; higher = more nucleation; inactive = no reads after selection
Method in brief: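 Nucleation score is defined as the DiMSum log enrichment of output over input reads, with centring on the mode score of non-aggregating sequences. A minimum of 100 input reads was required for each sequence. Reads came from Illumina sequencing of plasmid inserts from psi-negative yeast expressing Sup35N fused to peptides of 20 random codons, induced with 100 μM copper sulfate for 24 hours and grown 7 days at 30°C on medium lacking adenine and uracil.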

Substance | amyloid nucleation score
TRQKACMISKASPLGSSEYA | inactive
TRRWKALRP | 0.794 ± 0.2
TSCFLLILCLQMKCTSFTSS | 2.18 ± 0.11
TSDWRLYFRLTDVVIGLW | 1.86 ± 0.083
TSFCTSVIGIVIHQDFAVDG | 5.574 ± 0.045
TSFFPIILKRVPSIKLGTRK | inactive
TSGDCYMNGILNNGWGQ | -1.42 ± 0.78
TSKRVFSRVESGTQVLGNEG | -0.053 ± 0.5
TSLFI | 0.487 ± 0.6
TSPGTGIVGDIYLHYIFVKW | 0.327 ± 0.46
TSQLRMDGSSILMAHLKCYR | 0.441 ± 0.26
TSRDWCLDVPWKSHYYEVKY | -0.518 ± 0.48
TSRKGNSSHL | -1.54 ± 0.75
TSRRHYIVSVNLMK | inactive
TSRYTHNCMPIDCMIMHMGI | 1.77 ± 0.14
TSSTTGSYLWEDEDYSYNFF | 1.68 ± 0.12
TSVIGKSGPRYLFLEC | 0.299 ± 0.8
TSVNALFRWPRLFSYRREPV | 0.202 ± 0.79
TSVYPRGYFPVSCACYFLLE | -1.3 ± 0.48
TTDRTDCLSFQLNFTDMKRG | 6.08 ± 0.073
TTHLLFLFLALKNNPRTILT | -0.294 ± 1.1
TTPLTRRFRRFHVW | 1.02 ± 0.26
TTRRC | -0.43 ± 0.32
TTSVTGQC | -1.09 ± 0.55
TVAVRSPIT | -0.686 ± 0.44

Substance | amyloid nucleation score
TVCWSLFDDCSFYFRCNAFE | 8.42 ± 0.042
TVDNPSNSFTFFRVYQLYVR | 3.11 ± 0.14
TVFFF | 2.6 ± 0.11
TVFFGLVCRGPVKKDM | 2.1 ± 0.17
TVFRFNIYDYFFVM | 4.27 ± 0.057
TVFVWKPRVGKN | 4.716 ± 0.044
TVFWSNLVRVPCRSDTSQYD | 0.148 ± 1
TVFYIYMGQDDG | 5.12 ± 0.1
TVGIVGFHVVVRELWVGVRR | 6.868 ± 0.066
TVGLIRLRLSILYFGPLDSV | 0.115 ± 0.56
TVHCGMQWWLVARRPRNEAQ | 1.25 ± 0.38
TVIRRIYFRRPGRSNMSCTN | -0.067 ± 0.65
TVLWSRLDPPPRERKL | 1.13 ± 0.34
TVMKDYMALESSSYVNPMLI | -0.251 ± 0.76
TVMRGVLCMTILYLMWHKGY | 4.75 ± 0.08
TVNCLGIFSRFLCLNWASWL | 3.53 ± 0.15
TVRLVWSWMHTPLFGPVTCA | 0.073 ± 0.56
TVSIDLASIWALA | inactive
TVSNPGMPNAI | -0.557 ± 0.64
TVSQFLFN | -0.559 ± 0.76
TVVGSLSVVF | 1.47 ± 0.38
TVYAIP | -0.322 ± 0.65
TWNGVWLGDFACFSWYMGPL | 0.094 ± 0.36
TWRYRKMFASASFA | 0.33 ± 0.16
TWTLQQSVLVSEKNAKGRVT | 3.98 ± 0.078

Substance | amyloid nucleation score
TYCILPLRVRMWTSTTLCQV | 4.59 ± 0.055
TYDLDLVMLRSMRVENLLWG | 0.616 ± 0.4
TYEMSVVGVEWWVTGQLTIC | 1.68 ± 0.38
TYFARCFDNWTVNWCVARVC | 0.614 ± 0.57
TYNGMFTQLAFG | 3.48 ± 0.07
TYPAHFVWLCNCCVDKYSLS | 2.79 ± 0.069
TYSVGSSYCLRRSFGAGFFS | 0.728 ± 0.25
TYTVRFENSRRTGDN | -0.13 ± 0.41
TYVAFGGWLLEMPMLPTWSQ | 0.332 ± 0.37
VADMVVRT | 0.806 ± 0.32
VAESVSVT | 0.6 ± 0.24
VAGIVYLGARW | 5.43 ± 0.086
VAHKSPFIAHFTWVILAYGM | 0.211 ± 0.61
VAMVLLC | 1.03 ± 0.21
VAQAQQQYP | 1.08 ± 0.53
VATLMIKFR | 4.116 ± 0.036
VAVLKGVGDSPNLAGDSKWD | 0.355 ± 0.56
VAVTMHYDNFHCLLCCCSTL | 8.384 ± 0.078
VAWMFMASFRSLSMMVSISR | 0.01 ± 0.37
VCAQLYPVYMWFWICMGMVQ | 2.27 ± 0.14
VCELGRRWDLRSVLSC | 0.624 ± 0.42
VCFNWRHYATRLSDERWLRS | 1.1 ± 0.52
VCFVWDKARAMCSFYFV | -0.596 ± 0.79
VCGMLTVIHWFLVIVVIDLV | 0.863 ± 0.58
VCGWFHGHWGTWWDVQQRKR | 2.3 ± 0.16

Substance | amyloid nucleation score
VCPPSDVS | inactive
VCREMSYLQ | -0.809 ± 0.54
VCSGGLQDSRGYCCYPVGRM | 1.31 ± 0.32
VCVGYFCC | 5.789 ± 0.024
VCVLYLTSTGFLGQLY | 2.74 ± 0.14
VDCGFYSSIVAFYRYVHVPW | -0.026 ± 0.27
VDIASLKLTSNH | -0.213 ± 0.65
VDITL | -0.779 ± 0.56
VDRHYRSLRFVVGQSVLHSK | 4.952 ± 0.046
VDRYLSHCVGKGLDF | -0.55 ± 0.56
VDSVTGVMTFSTRSRSSDGD | 0.844 ± 0.43
VDTSYITCITRLSPYIKVVL | -0.477 ± 0.79
VDVFPAPSHRCGLMNLCNLV | 0.969 ± 0.28
VDVVG | 0.299 ± 0.65
VDWVMNCYTSGVVSLSFSLG | inactive
VEIFNLMSGTIIPGLSKLMK | -2.02 ± 0.45
VENVTDGAVSARYDDMDTSS | -0.179 ± 0.3
VERFWLIWSRAYYFDFRVRE | 0.098 ± 0.79
VEWCRMVGWSFECEASEKHW | 4.33 ± 0.055
VFAGFACFHIIN | 5.843 ± 0.044
VFASMFILFYV | 3.46 ± 0.07
VFCHLE | 2.43 ± 0.13
VFDIWFLGSDTSSCVNWTYR | 6.583 ± 0.048
VFHRVEYSWGFRFYCCCLMC | 3.91 ± 0.059
VFIGQQDHINP | 0.363 ± 0.65

Substance | amyloid nucleation score
VFKFLSAISPFKGD | 0.551 ± 0.38
VFLFDLGYQGR | 6.67 ± 0.073
VFLGVSGETVNSTGYFTGMN | -2.13 ± 1.1
VFLLTLRCCWEFVLCADGP | 1.29 ± 0.36
VFLYYRTILMWVVSGLL | -0.449 ± 0.63
VFPMNELMASTVNKA | 6.274 ± 0.033
VFRGAVSWTVLIGDNKVVLY | 0.674 ± 0.45
VFSGGSPWWVANMRGAPKLL | 0.94 ± 0.2
VFSSYYRSKEFTCIVLLGL | -0.026 ± 0.33
VFTTQEGTTTIPRNSMIEYA | -0.193 ± 0.37
VFVFFGDKW | inactive
VFVWIGLGWVTSLLSLYTNG | inactive
VFWLLGCVHNRGVGQTSHKL | 0.741 ± 0.47
VFYELGLFLLNFVVLHASED | 1.68 ± 0.18
VFYNLGVHMWLWWSGIVLVR | 0.775 ± 0.74
VGCIYSFWEWVFKQPVRSRK | inactive
VGETLLSFCINWRVGYMFGN | -0.518 ± 0.5
VGGLDKNHMVLDCLDKGCGM | 0.216 ± 0.62
VGGSDSLNFIAIGKTFCVQV | 0.186 ± 0.27
VGGWSLYSSPVLLRIWFKRH | 0.087 ± 0.79
VGINLSSATGMFEGKIQDNA | -0.757 ± 0.37
VGKLS | -0.528 ± 0.29
VGLCVLFRWLHKTWMMEWLG | 0.426 ± 0.35
VGMTTSWMVDPHGGRPGYHS | 2.01 ± 0.16
VGSFIFLLRCWLSCAIAGVQ | -0.323 ± 0.65

Substance | amyloid nucleation score
VGSGGKGSMFYGYIELIFM | -0.641 ± 1.1
VGYFLKAMETCVTSLL | inactive
VGYIQGFERTYL | -0.42 ± 0.76
VGYLALQFLVRCMY | inactive
VHAPLLRRPNVLHTKLH | 0.112 ± 1.1
VHCREWEIIRMINLSRKQRV | -0.419 ± 0.46
VHDRLRLGWGAYGYPFGVLM | 0.027 ± 1
VHLVSLSLNKTLYDFLTGMG | -0.178 ± 0.35
VHVWWANVIRVMYNHVRSDW | 0.133 ± 0.34
VHYVFSCCNKLPSANSRWGL | 6.718 ± 0.066
VIAGDTQGMSRGWFLGVLPW | inactive
VICRGITVARWSF | 3.58 ± 0.065
VIDTCGDVNRSRGQVLSGGV | 0.293 ± 0.3
VIFYRSFTVS | 3.64 ± 0.053
VIILRTPYVCSHYWSDPTVL | -0.138 ± 0.56
VIKFFNLREQFFVIIMAYGF | inactive
VILMDMYHAGNSAMCLACGN | -0.119 ± 0.49
VILRVIGIIMRDNKFSHDVR | inactive
VIMSGHSNRHWRSGLERMAG | 0.823 ± 0.27
VIQNYL | -0.624 ± 0.39
VIRSLSFLSYIWVDKGVGVV | -0.89 ± 0.53
VIRVESCPVYFYLTTRTAGS | 0.633 ± 0.8
VIRVLSMLFFSRVLVPVNSK | 0.151 ± 0.62
VISCQKPGDIKTYNRVGTTD | -0.35 ± 0.23
VISKYDWFK | -0.255 ± 1.1

Substance | amyloid nucleation score
VIYSELGYHREPVLCG | -0.972 ± 0.49
VIYVPLGKNLKIFSKHSFFG | -0.906 ± 0.76
VKASFS | 0.798 ± 0.44
VKEVRLPGTRILGRLAGSFR | inactive
VKFVLQVYYGVPST | 0.307 ± 0.27
VKFWYWAVDLDSCVRCGDGA | 6.586 ± 0.049
VKHTFLRKFWMHRSIESYGH | -0.111 ± 0.38
VKITGPRWLATIICYMFR | 6.47 ± 0.075
VKIYVFSFFMEL | 3.7 ± 0.12
VKLIGKITELGKNRMLMLWT | 0.429 ± 0.28
VKPWFS | -0.145 ± 1.1
VKRVFGYCFIEGLSKDVFHG | 6.351 ± 0.043
VKWACNMLSI | -0.676 ± 0.48
VKWLYTLDSNFVLVFVPCLT | -0.078 ± 0.39
VLAFRFYFAVVLGLMIVYG | -0.16 ± 0.62
VLCFCRDFLFVLIQNPFTFP | inactive
VLCGNSFMNCCSAFRCGSAV | 8.923 ± 0.059
VLEITLCG | 0.834 ± 0.46
VLFAWSASDVIVV | 0.639 ± 0.33
VLFKIIRLRLENIPSSWWVI | 0.152 ± 0.32
VLFNKSLLRWSNWLV | 0.166 ± 0.26
VLGNGYPD | -0.19 ± 1.1
